Test results from US20140178332A1 (published 2014).

How the values were obtained:
[1] = target: T1, recombinant purified mouse IL-12 (Peprotech) (mouse, UniProt P43432 23-335; P43431 23-215); assay: indirect ELISA, mAb captured on anti-mouse IgG Fc, mouse IL-12 at 0.2 ug/ml
T1 construct: Bought reagent; also called mu IL-12; murine IL-12
T1 sequence (looked up) 1: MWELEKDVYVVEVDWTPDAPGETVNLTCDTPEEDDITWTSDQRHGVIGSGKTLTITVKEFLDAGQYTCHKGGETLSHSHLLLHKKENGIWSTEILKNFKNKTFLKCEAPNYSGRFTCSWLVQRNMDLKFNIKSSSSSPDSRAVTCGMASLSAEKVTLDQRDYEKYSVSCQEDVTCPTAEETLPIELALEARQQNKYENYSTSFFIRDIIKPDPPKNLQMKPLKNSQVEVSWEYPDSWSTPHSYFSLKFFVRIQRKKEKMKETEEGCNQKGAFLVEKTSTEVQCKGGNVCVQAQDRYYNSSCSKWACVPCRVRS
T1 sequence (looked up) 2: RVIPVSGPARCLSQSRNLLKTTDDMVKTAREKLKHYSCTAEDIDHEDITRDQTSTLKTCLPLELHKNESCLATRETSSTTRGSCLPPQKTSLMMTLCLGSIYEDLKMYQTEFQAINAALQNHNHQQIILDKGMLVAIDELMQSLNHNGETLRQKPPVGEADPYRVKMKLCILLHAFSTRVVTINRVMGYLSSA
Description: Second, an indirect ELISA was set up by coating ELISA plates with 5 ug/ml of goat anti-mouse IgG, Fc fragment specific antibody (Pierce #31170, Rockland, Ill.). Murine anti-human IL-12 p40 mAbs were prepared at various concentrations ranging from 0.1 to 100 ng/ml in PBS containing 0.1% BSA; 50 ul of each antibody dilution was added to the coated ELISA plate and incubated for 1 hour at room temperature. Wells were washed 3 times with PBS containing 0.05% Tween-20. Recombinant purified mouse IL-12 (Preprotech) was diluted at 0.2 ug/ml in PBS containing 0.1% BSA; 50 ul/well was added and the plates incubated for 1 hour at room temperature. Wells were washed 3 times with PBS containing 0.05% Tween-20. Biotinylated anti-mouse IL-12 antibody (R&D # BAF419) was diluted at 0.2 ug/ml in PBS containing 0.1% BSA; 50 ul/well was added and the plates incubated for 1 hour at room temperature. Wells were washed 3 times with PBS containing 0.05% Tween-20. Streptavidin HRP (Pierce #21126, Rockland, Ill.) was diluted 1:20000 in PBS containing 0.1% BSA; 50 μL/well was added and the plates incubated for 1 hour at room temperature. Plates were washed 3 times with PBS containing 0.05% Tween-20. Fifty microliters of TMB solution was added to each well and incubated for 10 minutes at room temperature. […] Plates were read spectrophotmetrically at a wavelength of 450 nm.

[2] = target: T2, recombinant purified human IL-12 p70 (human, UniProt P29459 23-219); assay: competition ELISA on coated human IL-12, competitor of 0.8 µg/ml biotinylated 8E1, Expt. 2
T2 construct: Disulfide-linked heterodimer of p35 and p40; also called hIL-12; Hu IL-12
T2 sequence 1: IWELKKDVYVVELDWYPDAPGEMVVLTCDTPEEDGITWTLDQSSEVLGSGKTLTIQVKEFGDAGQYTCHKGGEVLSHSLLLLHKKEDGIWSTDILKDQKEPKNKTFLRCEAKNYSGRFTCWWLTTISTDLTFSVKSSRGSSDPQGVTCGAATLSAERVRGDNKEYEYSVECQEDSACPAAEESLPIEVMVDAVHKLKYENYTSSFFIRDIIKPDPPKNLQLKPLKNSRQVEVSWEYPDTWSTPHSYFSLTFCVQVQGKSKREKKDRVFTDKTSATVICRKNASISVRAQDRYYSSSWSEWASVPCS
T2 sequence 2: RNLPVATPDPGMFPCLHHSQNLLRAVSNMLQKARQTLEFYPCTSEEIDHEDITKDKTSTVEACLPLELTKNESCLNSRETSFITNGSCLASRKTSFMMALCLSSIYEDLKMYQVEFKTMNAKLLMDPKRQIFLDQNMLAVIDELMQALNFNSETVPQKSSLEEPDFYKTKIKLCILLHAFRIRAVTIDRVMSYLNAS
Description: MaxiSorp ELISA plates (Nalge Nunc International) were coated overnight at 4° C. with 100 μl/well of 1.0 μg/ml human IL-12 in 0.2 M sodium carbonate-bicarbonate buffer, pH 9.4, washed with Wash Buffer (PBS containing 0.1% Tween 20), and blocked for 1 hr at room temperature with 300 μl/well of SuperBlock Blocking Buffer in TBS (Pierce Chemical Company). After washing with Wash Buffer, a mixture of biotinylated 8E 1 ([…] final concentration) and competitor antibody (8E1 or 8E1.4 or 8E1.5 or 8E1.6) starting at 100 μg/ml final concentration and serially diluted 3-fold) in 100 μl/well of ELISA buffer was added in duplicate. As isotype controls, 100 μl/well of 100 μg/ml mouse IgG 1/κ (MuFd79) or humanized IgG1/κ (HuFd79) monoclonal antibodies in ELISA buffer was used. As a no-competitor control, 100 μl/well of ELISA Buffer was used. After incubating the plates for 1 hr at room temperature, and washing with Wash Buffer, bound antibodies were detected using 100 μl/well of 1 μg/ml HRP-conjugated streptavidin (Pierce Chemical Company) in ELISA buffer. After incubating for 1 hr at room temperature, and washing with Wash Buffer, color development was performed by adding 100 μl/well of ABTS Peroxidase Substrate/Peroxidase Solution B (KPL, Inc.). […] Absorbance was read at 415 nm.
The affinity of 8E1.4, 8E1.5 and 8E1.6 to human IL-12 was analyzed by competition ELISA as described above.

- IC50 [2]: 2.78 µg/mL
B1: murine anti-human IL-12p40 monoclonal antibody 8E1 (antibody, V domains shown)
VH: EVKLVESGGGLVQPGGSRKLSCAASGFTFSDYGMVWVRQAPGKGLEWVASISSGSSNIYYADTVKGRFTISRDDPNNTLFLQMRSLRSEDTAMYYCARNPYWGQGTTLTVSS
VL: DIVMTQSQKFMSTSVGDRVSVTCKASQNVGTNVAWYQQKPGQSPKGLIYSASHRYSGVPDRFAGSGSGTDFTLTISNVQSEDLAEYFCQQYNSYPLTFGGGTKLELKR
notes: Murine mAb; also called biotinylated 8E1
- binding result [1]: no binding (tested: 0.1 to 100 ng/ml mAb)
